# Where a chain is given by its changes, count along the chain named.
# B1: β-conglycinin β subunit mutant 39328-36 (other)
# chain: MDYKDDDDKLKVREDENNPFYLRSSNSFQTLFENQNGRIRLLQRFNKRSPQLENLRDWRIVQFQSKPNTILLPHHADADFLLFVLSGRAILTLVNNDDRDSWNLHPGDAQRIPAGTTYYLVNWHDHQNLKIIKLAIPVNKPGRWDDFFLSSTQAQQSWLQGFSHNILETSFHSEFEEINRVLLGEEEEQRQQEGVIVELSKEQIRQLSRRAKSSSRKTISSEDEWFNLRSRNPIWSNNFGKFFEITPEKTWQLRDLDIFLSSVDINEGALLLPHFNSKAIVILVINEGDANIELVGIKEQQQKQKQEEEPLEVQRWRAELSEDDVFVIPAAYPFVVNATSNLNFLAFGINAENNQRNFLAGEKDNVVRQIERQVQELAFPGSAQDVERLLKKQRESYFVDAQPQQKEEGSKGRKGPFPSILGALY
# B2: β-conglycinin β subunit mutant 39328-59 (other)
# chain: B1 chain with Y21W, Y119W, W225P, W235Y, W251P, Y397W
# B3: β-conglycinin β subunit mutant 39328-63 (other)
# chain: B1 chain with Y21W, W225P, W235Y, Y397W
# B4: β-conglycinin β subunit mutant 39328-27 (other)
# chain: MDYKDDDDKLKVREDENNPFWLRSSNSFQTLFENQNGRIRLLQRFNKRSPQLENLRDWRIVQFQSKPNTILLPWHADADFLLFVLSGRAILTLVNNDDRDSWNLHPGDAQRIPAGTTWWLVNPHDHQNLKIIKLAIPVNKPGRYDDFFLSSTQAQQSYLQGFSHNILETSFHSEFEEINRVLLGEEEEQRQQEGVIVELSKEQIRQLSRRAKSSSRKTISSEDEPFNLRSRNPIYSNNFGKFFEITPEKTPQLRDLDIFLSSVDINEGALLLPHFNSKAIVILVINEGDANIELVGIKEQQQKQKQEEEPLEVQRYRAELSEDDVFVIPAAYPFVVNATSNLNFLAFGINAENNQRNFLAGEKDNVVRQIERQVQELAFPGSAQDVERLLKKQRESYFVDAQPQQKEEGSKGRKGPFPSILGALY
# B5: β-conglycinin β subunit mutant 39328-65 (other)
# chain: B1 chain with Y21W, W225P, W235Y, W251P, Y332W, Y397W
# B6: β-conglycinin β subunit mutant 39335-6 (other)
# chain: MDYKDDDDKLKVREDENIPFYLRSSNSFQTLFENQNGRIRLIQRFNKRSPQLENLRDYIIVQFQSKPNTILLPIHADADFLLFVLSGRAILTLVNNDDRDSYNLHPGIAQRIPAGTTYYLVNIHDHQNLKIIKLAIIVNKPGRYDDFFLSSTQAQQSYLQGFSHNILETSFHSEFEEINRVLLGEEEEQRQQEGIIVELSKEQIRQLSRRAKSSSRKTISSEDEPFNLRSRNIIYSNNFGKFFEITPEKIIQLRDLDIFLSSVDINEGALLLPHFNSKAIVILVIIEGDANIELVGIKEQQQKQKQEEEPLEVQRYRAELSEDDVFVIPAAYPFVVNATSNLNFLAFGINAENNQRNFLAGEKDNVVRQIERQVQELAFPGSAQDVERLLKKQRESYFVDAQPQQKEEGSKGRKGPFPSILGALY
# B7: β-conglycinin β subunit mutant 39335-57 (other)
# chain: MDYKDDDDKLKVREDENNPFYLRSSNSFQTLFENQNGRIRLIQRFNKRSPQLENLRDYRIVQIQSKPNTIILPHHADADFIIIILSGRAIITIVNNDDRDSYNIHPGDAIRIPAGTTYYIINPHDHQNLKIIKIAIPVNKPGRYDDFFLSSTQAQQSYLQGFSHNILETSFHSEFEEINRVLLGEEEEQRQQEGVIVELSKEQIRQLSRRAKSSSRKTISSEDEPFNLRSRNPIYSNNFGKFFEITPEKTPQLRDLDIFISSVDINEGALLLPHFNSKAIVILVINEGDANIEIVGIKEQQQKQKQEEEPLEVQRYRAELSEDDIFVIPAAYPFVINATSNLNFIAFGINAENNQRNFLAGEKDNVVRQIERQVQELAFPGSAQDVERLLKKQRESYFVDAQPQQKEEGSKGRKGPFPSILGALY
# B8: β-conglycinin β subunit mutant 39335-70 (other)
# chain: B7 chain with L52I, I63F, I110Q, L253I, I260L, I294L, F326I, I336V, F344I, F347I
# B9: β-conglycinin β subunit mutant 39335-64 (other)
# chain: B7 chain with L271I, L272I, F326I, I345L
# B10: β-conglycinin β subunit mutant 39335-74 (other)
# chain: B7 chain with I63F, I91L, I93L, I110Q, I260L, I294L, I325V, I336V, I345L, F398I
# B11: β-conglycinin β subunit mutant 39335-66 (other)
# chain: MDYKDDDDKLKVREDENNPFYLRSSNSFQTLFENQNGRIRLIQRFNKRSPQLENLRDYRIVQFQSKPNTIILPHHADADFIIIILSGRAILTLVNNDDRDSYNIHPGDAQRIPAGTTYYIINPHDHQNLKIIKIAIPVNKPGRYDDFFLSSTQAQQSYLQGFSHNILETSFHSEFEEINRVLLGEEEEQRQQEGVIVELSKEQIRQLSRRAKSSSRKTISSEDEPFNLRSRNPIYSNNFGKIFEITPEKTPQLRDLDIFLSSVDINEGALLLPHFNSKAIVILVINEGDANIELVGIKEQQQKQKQEEEPLEVQRYRAELSEDDVFVIPAAYPFVVNATSNLNFLAFGINAENNQRNFLAGEKDNVVRQIERQVQELAFPGSAQDVERLLKKQRESYIVDAQPQQKEEGSKGRKGPFPSILGALY
# B12: β-conglycinin β subunit mutant 39335-71 (other)
# chain: B11 chain with L52I, I242F, L253I, V325I, F326I, F344I, L345I, F347I, I398F
# B13: β-conglycinin β subunit mutant 39335-1 (other)
# chain: MDYKDDDDKLKVREDENNPFYLRSSNSFQTLFENQNGRIRLIQRFNKRSPQLENLRDYRIVQFQSKPNTIILPHHADADFLLFVLSGRAILTLVNNDDRDSYILHPGDAQRIPAGTTYYLVNPHDHQNLKIIILAIPVNKPGRYDDFFLSSTQAQQSYLQGFSHNILETSFHSEFEEINRVLLGEEEEQRQQEGIIVELSKEQIRQLSRRAKSSSRKTISSEDEPFNLRSRNPIYSNNFGKIFEITPEKIIQLRDLDIFLSSVDINEGALLLPHFNSKAIVIIIINEGDANIEIVGIKEQQQKQKQEEEILEVQRYRAELSEDDVFVIPAAYPIVVNATSNINFLAFGINAENIQRNFLAGEKDNVVRQIERQVQELAFPGSAQDVERLLKKQRESYIVDAQPQQKEEGSKGRKGPFPSILGALY
# B14: β-conglycinin β subunit mutant 39335-2 (other)
# chain: B13 chain with R59I, L81I, I242F, I283L, I284V, I294L, I310P
# B15: β-conglycinin β subunit mutant 39335-3 (other)
# chain: B6 chain with I108D, I123P, I250T, I251P
# B16: mature form (plus additional methionine encoded by start codon) of the β-conglycinin β subunit encoded by pMON39329 (other)
# chain: MLKVREDENNPFYLRSSNSFQTLFENQNGRIRLLQRFNKRSPQLENLRDYRIVQFQSKPNTILLPHHADADFLLFVLSGRAILTLVNNDDRDSYNLHPGDAQRIPAGTTYYLVNPHDHQNLKIIKLAIPVNKPGRYDDFFLSSTQAQQSYLQGFSHNILETSFHSEFEEINRVLLGEEEEQRQQEGVIVELSKEQIRQLSRRAKSSSRKTISSEDEPFNLRSRNPIYSNNFGKFFEITPEKTPQLRDLDIFLSSVDINEGALLLPHFNSKAIVILVINEGDANIELVGIKEQQQKQKQEEEPLEVQRYRAELSEDDVFVIPAAYPFVVNATSNLNFLAFGINAENNQRNFLAGEKDNVVRQIERQVQELAFPGSAQDVERLLKKQRESYFVDAQPQQKEEGSKGRKGPFPSILGALY
# notes: expressed in E. coli; also called native form
# B17: epitope (FLAG)-tagged form of the β-conglycinin β subunit encoded by pMON39328 (other)
# chain: B4 chain with W21Y, W58Y, W74H, W102Y, W118Y, W119Y
# notes: Expressed in E. coli. pMON39335 encodes the same protein (silent change TTA to CTT at Leu24); also called pMON39335
# Biological target: the molecule itself
# Test: sucrose gradient sedimentation, anti-FLAG western (self-assembly)
# Experimental: (§1) To determine if the recombinant forms of β subunit expressed in E. coli from pMON39328 and pMON39329 could self-assemble to form trimers, aliquots of the soluble protein fraction from E. coli lysates are layered onto 12 ml of a 5-25% sucrose density gradient and centrifuged at 36,000 rpm for 17.5 hours at 20° C. (Sorvall TH-641 rotor; Sorvall Ultra Pro 80 ultracentrifuge). Following centrifugation, the gradient is divided into fractions using a Labconco Autodensi-Flow instrument (Labconco, Kansas City, Mo.), and each fraction is analyzed by western blot analysis using Anti-FLAG M2 antibody (Stratagene Corporation, LaJolla, Calif.) to determine which fractions contained β-conglycinin β subunit. 7S and […] soy protein fractions, as well as ovalbumin (45 kD) and aldolase (158 kD), are run as size markers on separate gradients.
# This example sets forth confirmation of the protein structure from the expression of modified β-conglycinin β subunit clones. The assembly properties of the following modified forms of the β subunit (indicated by mutant ID number), each containing a different tryptophan substitution, are determined as described in Example 6. Western blot analysis of sucrose gradient fractions is carried out as in Example 6 using anti-FLAG antibody.
row,Protein,binding result
1,B1,no binding
2,B2,no binding
3,B3,no binding
4,B4,no binding
5,B5,no binding

# Biological target: the molecule itself
# Test: as above
# Remark: another data set of the same source
row,Protein,binding result
1,B6,no binding
2,B7,no binding
3,B8,no binding
4,B9,no binding
5,B10,no binding
6,B11,no binding
7,B12,no binding
8,B13,no binding
9,B14,no binding
10,B15,no binding

# Biological target: the molecule itself
# Test: as above
# Remark: another data set of the same source
# Experimental: as §1
row,Protein,binding result
1,B16,binds
2,B17,binds

# From patent US20030200558A1 (MONSANTO, published 2003)
